Measurements as given in paper PMC9061725, “GGDEF domain as spatial on-switch for a phosphodiesterase by interaction with landmark protein HubP” (NPJ Biofilms and Microbiomes, 2022).
Changes are numbered by the printed parent chain. In names and notes the source's numbering stands.

T1: MshE (Shewanella putrefaciens, UniProt A0ABX8XDM4)
T1 construct: gene tadA; full-length, His-tag purified from E. coli BL21(DE3); strain inferred from locus prefix Sputcn32
T1 sequence (A0ABX8XDM4 1-586): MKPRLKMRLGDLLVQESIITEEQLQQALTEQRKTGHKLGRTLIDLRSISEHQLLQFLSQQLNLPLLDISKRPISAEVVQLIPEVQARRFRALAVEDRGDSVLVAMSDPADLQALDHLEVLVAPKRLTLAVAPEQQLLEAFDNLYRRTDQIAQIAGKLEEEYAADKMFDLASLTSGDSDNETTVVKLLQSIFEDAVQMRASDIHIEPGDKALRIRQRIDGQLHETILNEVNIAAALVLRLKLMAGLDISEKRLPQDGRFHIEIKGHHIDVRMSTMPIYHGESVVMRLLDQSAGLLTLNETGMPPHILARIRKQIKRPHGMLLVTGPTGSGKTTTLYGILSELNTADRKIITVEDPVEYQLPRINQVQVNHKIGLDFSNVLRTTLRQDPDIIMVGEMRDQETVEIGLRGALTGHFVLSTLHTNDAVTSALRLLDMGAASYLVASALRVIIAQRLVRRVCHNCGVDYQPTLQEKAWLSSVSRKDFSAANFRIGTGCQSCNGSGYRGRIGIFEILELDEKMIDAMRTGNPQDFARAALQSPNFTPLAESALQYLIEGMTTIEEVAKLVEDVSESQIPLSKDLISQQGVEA

T2: FimV domain of S. oneidensis HubP (S. oneidensis, biotinylated with EZ-Link NHS-PEG4-biotin (for the BLI assay only))
T2 chain: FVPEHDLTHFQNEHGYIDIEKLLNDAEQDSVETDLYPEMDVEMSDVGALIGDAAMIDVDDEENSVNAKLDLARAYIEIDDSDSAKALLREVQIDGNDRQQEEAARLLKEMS

T3: SoGGDEF_(PdeB) Q525S (S. oneidensis, UniProt Q8EJM6 454-587, Q525S)
T3 sequence: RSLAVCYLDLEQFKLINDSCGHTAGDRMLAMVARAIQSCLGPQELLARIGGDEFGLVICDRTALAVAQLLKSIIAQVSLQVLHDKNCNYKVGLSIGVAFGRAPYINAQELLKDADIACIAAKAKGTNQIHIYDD

T4: SoGGDEF_(PdeB) E497S (S. oneidensis, UniProt Q8EJM6 454-587, E497S)
T4 sequence: T3 sequence with E44S, S72Q

T5: SoGGDEF_(PdeB) G494A (S. oneidensis, UniProt Q8EJM6 454-587, G494A)
T5 sequence: T3 sequence with G41A, S72Q

T6: SoGGDEF_(PdeB) K575S (S. oneidensis, UniProt Q8EJM6 454-587, K575S)
T6 sequence: T3 sequence with S72Q, K122S

T7: SoGGDEF_(PdeB) K577S (S. oneidensis, UniProt Q8EJM6 454-587, K577S)
T7 sequence: T3 sequence with S72Q, K124S

B1: MBP-GGDEF_(SoPdeB), GGDEF domain of S. oneidensis PdeB, wild type (domain or fragment, UniProt Q8EJM6 454-587, looked up)
chain: T3 sequence with S72Q
notes: GGDEF (diguanylate cyclase) domain of the phosphodiesterase PdeB of Shewanella oneidensis; construct limits may stand there; The MBP tag is named for SEC, iSCAMS and pull-down; also called SoGGDEF; SoGGDEF_(PdeB); source: E. coli BL21(DE3), pET24c, purified (His Trap, SEC)
B2: SoGGDEF_(PdeB) K575S (domain or fragment, S. oneidensis, UniProt Q8EJM6 454-587, looked up)
chain: T3 sequence with S72Q, K122S
notes: GGDEF domain of PdeB of Shewanella oneidensis with K575S; Variant of m1; the methods of the pull-down call the GGDEF variants MBP-tagged; source: E. coli BL21(DE3), pET24c, purified (His Trap, SEC)
B3: SoGGDEF_(PdeB) K577S (domain or fragment, S. oneidensis, UniProt Q8EJM6 454-587, looked up)
chain: T3 sequence with S72Q, K124S
notes: GGDEF domain of PdeB of Shewanella oneidensis with K577S; Variant of m1; the methods of the pull-down call the GGDEF variants MBP-tagged; source: E. coli BL21(DE3), pET24c, purified (His Trap, SEC)
B4: FimV domain of S. oneidensis HubP (domain or fragment)
chain: T2 chain
modifications: biotinylated with EZ-Link NHS-PEG4-biotin (for the BLI assay only)

Key:
[1] = target: FimV domain of S. putrefaciens HubP (S. putrefaciens)
MshE = target: T1, MshE; assay: isothermal titration calorimetry; settings: 25 °C; one set of binding sites; value only in figure; read-out: dissociation constant
Excerpt: isothermal titration calorimetry on MshE | both MshE and MshE-N bind c-di-GMP with high affinity

MshE-N = target: T8, MshE-N (Shewanella putrefaciens, UniProt A0ABX8XDM4); assay: isothermal titration calorimetry; settings: 25 °C; one set of binding sites; value only in figure; read-out: dissociation constant
T8 construct: gene tadA; N-terminal domain aa 2-145, His-tag purified from E. coli BL21(DE3); strain inferred from locus prefix Sputcn32
Excerpt: isothermal titration calorimetry on MshE-N | both MshE and MshE-N bind c-di-GMP with high affinity

[2] = target: T2, FimV domain of S. oneidensis HubP; assay: interferometric scattering mass spectrometry (iSCAMS, mass photometry); MBP-GGDEF_(SoPdeB)/FimV_(HubP) complex, samples prepared at 1 µM, low-salt HEPES buffer (20 mM HEPES, 50 mM NaCl, 50 mM KCl, 5 mM MgCl2, pH 7.5), room temperature; settings: both partners purified
[3] = target: T2, FimV domain of S. oneidensis HubP; assay: BLI; biotinylated SoFimV held on streptavidin biosensors (BLITZ), SoGGDEF variants as analyte; medium salt HEPES buffer pH 7.5 for association only, high-salt Tris buffer pH 8 for association-dissociation; settings: both partners purified
[4] = target: B1; assay: as above; settings: both partners purified
SoGGDEF_(PdeB) Q525S = target: T3, SoGGDEF_(PdeB) Q525S; assay: BLI
SoGGDEF_(PdeB) E497S = target: T4, SoGGDEF_(PdeB) E497S; assay: BLI
SoGGDEF_(PdeB) G494A = target: T5, SoGGDEF_(PdeB) G494A; assay: BLI
SoGGDEF_(PdeB) K575S = target: T6, SoGGDEF_(PdeB) K575S; assay: BLI
SoGGDEF_(PdeB) K577S = target: T7, SoGGDEF_(PdeB) K577S; assay: BLI

Molecule: MBP-GGDEF_(PdeB), GGDEF domain of S. putrefaciens PdeB (domain or fragment)
- single-molecule tracking of PdeB-mVenus in S. putrefaciens cells: share of molecules statically confined to the cell pole [1]: 84%

Molecule: S. putrefaciens PdeB-mVenus K527E/Q528S (natural protein)
- single-molecule tracking of PdeB-mVenus K527E/Q528S in S. putrefaciens cells: share of static molecules [1]: 61%

Molecule: Nc1nc2c(ncn2[C@@H]2O[C@@H]3CO[P@](=O)(O)O[C@H]4[C@@H](O)[C@H](n5cnc6c(=O)[nH]c(N)nc65)O[C@@H]4CO[P@](=O)(O)O[C@H]3[C@H]2O)c(=O)[nH]1 [c-di-GMP]
- Kd (MshE): 9 µM
- Kd (MshE-N): 4 µM

Molecule: B1
- stoichiometry N [2]: ~1 GGDEF per FimV (2:2)

Molecule: B2
- fold increase of KD against the wild type [3]: 100 fold

Molecule: B3
- fold increase of KD against the wild type [3]: 10 fold

Molecule: B4
- Kd [4]: ~200 nM
- Kd (SoGGDEF_(PdeB) Q525S): 592 nM
- Kd (SoGGDEF_(PdeB) E497S): 299 nM
- Kd (SoGGDEF_(PdeB) G494A): 835 nM
- Kd (SoGGDEF_(PdeB) K575S): 22 µM
- Kd (SoGGDEF_(PdeB) K577S): 2720 nM
